This note sets out measurements from article PMC13142116, “Development and structure-guided characterization of a novel ACE2-binding macrocyclic peptide” (Journal of Structural Biology: X, 2026).

In this assay the target is T1, ACE2 on HEK-293 cells transfected with ACE2 (HEK-ACE2) (UniProt Q9BYF1 18-805).
T1 construct: ACE2 expressed in transfected HEK-293 cells; Expression verified earlier by western blotting (Beyer et al., 2023); also called ACE2-transfected HEK cells; source: HEK-293 cells transfected with ACE2, bought: Innoprot; on cells
Description: radioligand binding; saturation binding of the radiopeptide (1-2000 nM, 5 MBq/nmol) on HEK-ACE2 cells, 1 h at 4 °C on ice, DMEM without supplements; non-specific binding determined with 20 µM DX600; n = 3. The following applies: one partner purified.

Positions of bridges follow the written chain, without caps; N, C: chain ends. Non-standard residues stand in square brackets, D forms with d. *: point of attachment. DOTA = O=C(O)CN1CCN(CC(=O)O)CCN(CC(=O)*)CCN(CC(=O)O)CC1

T1 sequence (Q9BYF1 18-805): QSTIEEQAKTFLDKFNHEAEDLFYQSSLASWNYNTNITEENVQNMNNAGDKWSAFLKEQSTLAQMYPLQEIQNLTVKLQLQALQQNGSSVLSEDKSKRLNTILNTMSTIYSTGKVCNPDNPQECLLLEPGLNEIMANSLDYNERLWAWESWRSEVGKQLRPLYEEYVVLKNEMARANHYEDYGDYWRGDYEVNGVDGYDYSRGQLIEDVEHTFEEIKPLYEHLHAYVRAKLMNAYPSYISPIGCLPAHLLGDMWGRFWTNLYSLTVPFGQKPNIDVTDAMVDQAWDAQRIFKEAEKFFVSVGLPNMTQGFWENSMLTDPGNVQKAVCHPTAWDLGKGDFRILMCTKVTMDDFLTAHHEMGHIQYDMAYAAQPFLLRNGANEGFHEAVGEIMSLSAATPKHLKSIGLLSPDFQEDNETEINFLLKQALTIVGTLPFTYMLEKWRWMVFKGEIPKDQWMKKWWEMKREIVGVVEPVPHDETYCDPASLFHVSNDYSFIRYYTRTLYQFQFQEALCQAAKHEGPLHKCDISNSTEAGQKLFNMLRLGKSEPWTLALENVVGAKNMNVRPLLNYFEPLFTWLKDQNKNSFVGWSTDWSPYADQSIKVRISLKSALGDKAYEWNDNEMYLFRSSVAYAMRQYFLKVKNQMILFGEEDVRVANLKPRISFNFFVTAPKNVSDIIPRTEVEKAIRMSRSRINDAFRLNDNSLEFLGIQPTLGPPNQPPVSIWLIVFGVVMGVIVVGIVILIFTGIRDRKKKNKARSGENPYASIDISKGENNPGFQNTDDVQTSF

B1: [67Ga]Ga-DOTA-WJL-63 (peptide)
peptide: Ac-[dY]STQISRGFTRDSRGCGSGSGSK(DOTA)-NH2
modifications: bridge N-16; not fully specified (bridges); also: DOTA loaded with 67Ga
notes: WJL-63 with DOTA on the side chain of the C-terminal lysine; printed in three-letter code; Same peptide as m1 with a DOTA chelator and 67Ga; made on Rink amide resin, so the C-terminus should be an amide as in m1; also called radiolabeled DOTA-WJL-63; WJL-63 radiopeptide; source: synthetic peptide, DOTA conjugated, radiolabeled with gallium-67, used without further purification
In turn, B1 returned a Kd of 90 nM.

The term Kd denotes the equilibrium constant for the complex coming apart. Read a high Kd as a looser complex.
